B1: REGN9037 (antibody, human IgG4 S228P, kappa)
heavy: QVQLQESGPGLVKPSETLSLTCTVSGASISTYYWSWIRQPPGKGLEWIGYIYYSGTTNYNPSLKSRVTISVDTSKNQFSLKLSSVTAADTAVYYCARDRGGYDGEWGQGTLVTVSSASTKGPSVFPLAPCSRSTSESTAALGCLVKDYFPEPVTVSWNSGALTSGVHTFPAVLQSSGLYSLSSVVTVPSSSLGTKTYTCNVDHKPSNTKVDKRVESKYGPPCPPCPAPEFLGGPSVFLFPPKPKDTLMISRTPEVTCVVVDVSQEDPEVQFNWYVDGVEVHNAKTKPREEQFNSTYRVVSVLTVLHQDWLNGKEYKCKVSNKGLPSSIEKTISKAKGQPREPQVYTLPPSQEEMTKNQVSLTCLVKGFYPSDIAVEWESNGQPENNYKTTPPVLDSDGSFFLYSRLTVDKSRWQEGNVFSCSVMHEALHNRFTQKSLSLSPGK
chain: not shown
light: not shown
notes: Monovalent (one-armed) human IgG4: one full heavy chain, one light chain and one truncated heavy chain (Fc); also called one-armed anti-R5381 antibody; monovalent anti-R5381 mAb
B2: REGN6580 (antibody, human IgG4 S228P, kappa, V domains shown)
VH: QVQLVESGGGVVQPGRSLRLSCAASGFTFSSYGMHWVRQAPGKGLEWVALIWFDGGYKYYADSVKGRFTISRDNSKNTLYLQMNSLRADDTAVYYCARGSAAAGHVPFDYWGQGILVTVSS
VL: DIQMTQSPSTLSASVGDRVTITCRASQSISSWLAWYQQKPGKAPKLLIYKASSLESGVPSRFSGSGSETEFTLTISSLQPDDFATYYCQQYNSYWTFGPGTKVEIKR
notes: Bivalent human IgG4; also called bivalent anti-R5381 mAb; anti-idiotype antibody
B3: REGN6581 (antibody, human IgG4 S228P, kappa, V domains shown)
VH: QVQLQESGPGLVKPSETLSLTCTVSGASISTYYWSWIRQPPGKGLEWIGYIYYSGTTNYNPSLKSRVTISVDTSKNQFSLKLSSVTAADTAVYYCARDRGGYDGEWGQGTLVTVSS
VL: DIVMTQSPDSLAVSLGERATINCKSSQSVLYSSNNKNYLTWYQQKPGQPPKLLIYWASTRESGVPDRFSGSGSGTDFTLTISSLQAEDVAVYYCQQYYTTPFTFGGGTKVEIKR
notes: as for B2
B4: REGN9035 (antibody, human IgG4 S228P, kappa)
heavy: QVQLVESGGGVVQPGRSLRLSCAASGFTFSSYGMHWVRQAPGKGLEWVALIWFDGGYKYYADSVKGRFTISRDNSKNTLYLQMNSLRADDTAVYYCARGSAAAGHVPFDYWGQGILVTVSSASTKGPSVFPLAPCSRSTSESTAALGCLVKDYFPEPVTVSWNSGALTSGVHTFPAVLQSSGLYSLSSVVTVPSSSLGTKTYTCNVDHKPSNTKVDKRVESKYGPPCPPCPAPEFLGGPSVFLFPPKPKDTLMISRTPEVTCVVVDVSQEDPEVQFNWYVDGVEVHNAKTKPREEQFNSTYRVVSVLTVLHQDWLNGKEYKCKVSNKGLPSSIEKTISKAKGQPREPQVYTLPPSQEEMTKNQVSLTCLVKGFYPSDIAVEWESNGQPENNYKTTPPVLDSDGSFFLYSRLTVDKSRWQEGNVFSCSVMHEALHNRFTQKSLSLSPGK
chain: not shown
light: not shown
notes: as for B1

What follows are binders tested against T1, R5381 (assay: blocking ELISA: antibody pre-bound to 95 pM Biotin-R5381, binding to coated hNPR1.ecto.mmh read).
T1 construct: Fully human agonist anti-NPR1 monoclonal antibody; also called REGN5381; anti-NPR1 antibody
Method: After 1 hour, incubation at RT, the pre-bind reaction mix was transferred to microtiter plates coated with hNPR1.ecto.mmh. The microtiter plates were incubated at RT for 1 hour and then washed with plate washing solution. […] The plates were incubated with detection protein for 1 hour at RT and then washed with plate washing solution. The assay plates were developed with TMB colorimetric substrates according to the manufacturer's recommended procedure.
The absorbance at 450 nm for each well was recorded and plotted as the function of the concentration of antibody. Data was analyzed in GraphPad Prism software using a four-parameter logistic equation over an 11-point dose response curve and IC₅₀ values were calculated.
For B1, the “% Blocking with 333.33 nM antibody” value was 99% and the IC50 was 2.4 nM. In the case of B2, the “% Blocking with 333.33 nM antibody” value is reported as 100% and the IC50 is reported as 0.381 nM. B3 was tested, and the “% Blocking with 333.33 nM antibody” value was 100% and the IC50 was 0.543 nM. In the case of B4, the “% Blocking with 333.33 nM antibody” value is reported as 99.3% and the IC50 is reported as 2.04 nM.

What follows are binders tested against T2, H2aM22033N (assay: SPR Biacore T200, H2aM22033N captured via anti-mouse Fc, analyte injected, 37 C, pH 7.4).
T2 construct: also called parental hybridoma of R5381
Method: (§1) All binding studies were performed in 10 mM HEPES, 150 mM NaCl, 3 mM EDTA, and 0.05% v/v Surfactant Tween-20, pH 7.4 (HBS-ET) running buffer at 25° C. and 37° C. The Biacore CM5 sensor chip surface was first derivatized by amine coupling with anti-mouse Fc specific antibody (GE Healthcare, # BR100838) to capture H2aM22033N. […] The dissociation of different mAbs bound to H2aM22033N was monitored for 10 minutes in HBS-ET running buffer. At the end of each cycle, the H2aM22033N capture surface was regenerated using a 60 sec injection of 10 mM Glycine-HCl, pH 1.5. The association rate (kₐ) and dissociation rate (kd) were determined by fitting the real-time binding sensorgrams to a 1:1 binding model with mass transport limitation using Scrubber 2.0c curve-fitting software. Binding dissociation equilibrium constant (KD) and dissociative half-life (t½) were calculated from the kinetic rates as:
In the case of B1, the “100 nM Ag Bound (RU)” value is reported as 55 RU, the Kd is reported as 6.71 nM and the koff is reported as 0.000738 s⁻¹. The kon was 110000 M⁻¹ s⁻¹ and the t1/2 was 16 min. In the case of B2, the “100 nM Ag Bound (RU)” value is reported as 160 RU, the Kd is reported as 0.914 nM and the koff is reported as 0.000424 s⁻¹. For the same binder, the kon was 464000 M⁻¹ s⁻¹ and the t1/2 was 27 min. In the case of B3, the “100 nM Ag Bound (RU)” value is reported as 104 RU, the Kd is reported as 1.16 nM and the koff is reported as 0.000367 s⁻¹. For the same binder, the kon was 317000 M⁻¹ s⁻¹ and the t1/2 was 31 min. In the case of B4, the “100 nM Ag Bound (RU)” value is reported as 81 RU, the Kd is reported as 5.78 nM and the koff is reported as 0.00086 s⁻¹. It also gave a kon of 149000 M⁻¹ s⁻¹ and a t1/2 of 13 min.

What follows are binders tested against T2, H2aM22033N (assay: SPR Biacore 4000, H2aM22033N captured via anti-mouse Fc, 37 C, association pH 7.4, dissociation pH 6.5).
Method: (§2) All binding studies were performed at 37° C. using four running buffers, (i) PBS, 0.05% v/v Surfactant Tween-20, pH 7.4 (PBS-T-pH 7.4), (ii) PBS, 0.05% v/v Surfactant Tween-20, pH 6.5 (PBS-T-pH 6.5), (iii) PBS, 0.05% v/v Surfactant Tween-20, pH 6.0 (PBS-T-pH 6.0), and (iv) PBS, 0.05% v/v Surfactant Tween-20, pH 5.0 (PBS-T-pH 5.0).
(§3) The dissociation rate constants (kd) in four pH running buffers were determined by fitting the real-time binding sensorgrams to a 1:1 binding model using Scrubber 2.0c curve-fitting software. The dissociative half-life (t½) was calculated from the kd values as:
For B1, the koff was 0.000792 s⁻¹ and the t1/2 was 15 min. Binder B4 has a koff of 0.00142 s⁻¹ and a t1/2 of 8 min.

Each binder was assayed against T1, R5381 (assay: cell-based or functional assay).
With B1 the “IC50 of inhibition of 70 nM R5381-induced cGMP, 40 pM ANP” value (“IC50 of inhibition … 40 pM ANP” for short) was 1.76e-08 M, the “IC50 of inhibition of 70 nM R5381-induced cGMP, 80 pM BNP” value (“IC50 of inhibition … 80 pM BNP” for short) was 3.81e-08 M and the “IC50 of inhibition of 70 nM R5381-induced cGMP, no ligand” value (“IC50 of inhibition … no ligand” for short) was 36.3 nM. The “Max Inh. (%) of 70 nM R5381-induced cGMP, 40 pM ANP” value (“Max Inh. (%) … 40 pM ANP” for short) was 101%, the “Max Inh. (%) of 70 nM R5381-induced cGMP, 80 pM BNP” value (shortened to “Max Inh. (%) … 80 pM BNP”) was 97% and the “Max Inh. (%) of 70 nM R5381-induced cGMP, no ligand” value (“Max Inh. (%) … no ligand” below) was 99%. B2 was tested, and the “IC50 of inhibition … 40 pM ANP” value was 2.23e-08 M, the “IC50 of inhibition … 80 pM BNP” value was 3.32e-08 M and the “IC50 of inhibition … no ligand” value was 15.5 nM. For the same binder, the “Max Inh. (%) … 40 pM ANP” value was 102%, the “Max Inh. (%) … 80 pM BNP” value was 99% and the “Max Inh. (%) … no ligand” value was 99%. With B3 the “IC50 of inhibition … 40 pM ANP” value was 2.06e-08 M, the “IC50 of inhibition … 80 pM BNP” value was 3.5e-08 M and the “IC50 of inhibition … no ligand” value was 18 nM. For the same binder, the “Max Inh. (%) … 40 pM ANP” value was 104%, the “Max Inh. (%) … 80 pM BNP” value was 99% and the “Max Inh. (%) … no ligand” value was 100%. With B4 the “IC50 of inhibition … 40 pM ANP” value was 2.66e-08 M, the “IC50 of inhibition … 80 pM BNP” value was 4.13e-08 M and the “IC50 of inhibition … no ligand” value was 46 nM. For the same binder, the “Max Inh. (%) … 40 pM ANP” value was 104%, the “Max Inh. (%) … 80 pM BNP” value was 97% and the “Max Inh. (%) … no ligand” value was 100%.

What follows are binders tested against T2, H2aM22033N (assay: SPR Biacore 4000, H2aM22033N captured via anti-mouse Fc, 37 C, association pH 7.4, dissociation pH 6.0).
Method: as §2, §3
B1 gave a koff of 0.000811 s⁻¹ and a t1/2 of 14 min. In the case of B4, the koff is reported as 0.00294 s⁻¹ and the t1/2 is reported as 3.9 min.

Each binder was assayed against REGN1945 (assay: cell-based or functional assay).
In the case of B1, the “C1q-CIC assay Final Value; 100 nM antibody + 100 nM antigen; Result Neg” value is reported as 0.37 ug Eq/mL and the “C1q-CIC assay Final Value; 1 uM antibody + 100 nM antigen; Result Neg” value is reported as 0.55 ug Eq/mL. In the case of B3, the “C1q-CIC assay Final Value; 100 nM antibody + 100 nM antigen; Result Neg” value is reported as 0.35 ug Eq/mL and the “C1q-CIC assay Final Value; 1 uM antibody + 100 nM antigen; Result Neg” value is reported as 0.3 ug Eq/mL.

Target: T1, R5381
Assay: cell-based or functional assay
Remark: another data set of the same source
B1 was tested, and the “C1q-CIC assay Final Value; 100 nM antibody + 100 nM antigen; Result Neg” value was 0.64 ug Eq/mL and the “C1q-CIC assay Final Value; 1 uM antibody + 100 nM antigen; Result Neg” value was 0.42 ug Eq/mL. In the case of B3, the “C1q-CIC assay Final Value; 100 nM antibody + 100 nM antigen; Result Neg” value is reported as 0.65 ug Eq/mL and the “C1q-CIC assay Final Value; 1 uM antibody + 100 nM antigen; Result Neg” value is reported as 0.53 ug Eq/mL.

The binders below were run against T2, H2aM22033N (assay: SPR Biacore 4000, H2aM22033N captured via anti-mouse Fc, 37 C, association pH 7.4, dissociation pH 7.4).
Method: as §2, §3
For B1, the koff was 0.000867 s⁻¹ and the t1/2 was 13 min. Binder B4 has a koff of 0.000996 s⁻¹ and a t1/2 of 12 min.

Target: REGN1945
Assay: cell-based or functional assay
Remark: another data set of the same source
For B2, the “C1q-CIC assay Final Value; 100 nM antibody + 100 nM antigen; Result Neg” value was 0.11 ug Eq/mL and the “C1q-CIC assay Final Value; 1 uM antibody + 100 nM antigen; Result Neg” value was 0.16 ug Eq/mL. In the case of B4, the “C1q-CIC assay Final Value; 100 nM antibody + 100 nM antigen; Result Neg” value is reported as 0.15 ug Eq/mL and the “C1q-CIC assay Final Value; 1 uM antibody + 100 nM antigen; Result Neg” value is reported as 0.2 ug Eq/mL.

Target: T1, R5381
Assay: cell-based or functional assay
Remark: another data set of the same source
In the case of B2, the “C1q-CIC assay Final Value; 100 nM antibody + 100 nM antigen; Result Neg” value is reported as 0.22 ug Eq/mL and the “C1q-CIC assay Final Value; 1 uM antibody + 100 nM antigen; Result Neg” value is reported as 0.2 ug Eq/mL. With B4 the “C1q-CIC assay Final Value; 100 nM antibody + 100 nM antigen; Result Neg” value was 0.18 ug Eq/mL and the “C1q-CIC assay Final Value; 1 uM antibody + 100 nM antigen; Result Neg” value was 0.29 ug Eq/mL.

Each binder was assayed against T2, H2aM22033N (assay: SPR Biacore 4000, H2aM22033N captured via anti-mouse Fc, 37 C, association pH 7.4, dissociation pH 5.0).
Method: as §2, §3
B1 was tested, and the koff was 0.000664 s⁻¹ and the t1/2 was 17 min. In the case of B4, the koff is reported as 0.0197 s⁻¹ and the t1/2 is reported as 0.6 min.

The binders below were run against T2, H2aM22033N (assay: SPR Biacore T200, H2aM22033N captured via anti-mouse Fc, analyte injected, 25 C, pH 7.4).
Method: as §1
In the case of B1, the “100 nM Ag Bound (RU)” value is reported as 31 RU, the Kd is reported as 1.52 nM and the koff is reported as 9.89e-05 s⁻¹. For the same binder, the kon was 65100 M⁻¹ s⁻¹ and the t1/2 was 117 min. B2 was tested, and the “100 nM Ag Bound (RU)” value was 110 RU, the Kd was 0.528 nM and the koff was 9.42e-05 s⁻¹. It also gave a kon of 178000 M⁻¹ s⁻¹ and a t1/2 of 123 min. For B3, the “100 nM Ag Bound (RU)” value was 65 RU, the Kd was 0.561 nM and the koff was 7.11e-05 s⁻¹. For the same binder, the kon was 127000 M⁻¹ s⁻¹ and the t1/2 was 163 min. In the case of B4, the “100 nM Ag Bound (RU)” value is reported as 47 RU, the Kd is reported as 1.76 nM and the koff is reported as 0.000132 s⁻¹. The kon was 75100 M⁻¹ s⁻¹ and the t1/2 was 87 min.

From patent US20220195058A1 (Regeneron, published 2022)
